B1: "NAD(+) hydrolase SARM1" (Homo sapiens), Q6SZW1 (parent)
chain: MVLTLLLSAYKLCRFFAMSGPRPGAERLAVPGPDGGGGTGPWWAAGGRGPREVSPGAGTEVQDALERALPELQQALSALKQAGGARAVGAGLAEVFQLVEEAWLLPAVGREVAQGLCDAIRLDGGLDLLLRLLQAPELETRVQAARLLEQILVAENRDRVARIGLGVILNLAKEREPVELARSVAGILEHMFKHSEETCQRLVAAGGLDAVLYWCRRTDPALLRHCALALGNCALHGGQAVQRRMVEKRAAEWLFPLAFSKEDELLRLHACLAVAVLATNKEVEREVERSGTLALVEPLVASLDPGRFARCLVDASDTSQGRGPDDLQRLVPLLDSNRLEAQCIGAFYLCAEAAIKSLQGKTKVFSDIGAIQSLKRLVSYSTNGTKSALAKRALRLLGEEVPRPILPSVPSWKEAEVQTWLQQIGFSKYCESFREQQVDGDLLLRLTEEELQTDLGMKSGITRKRFFRELTELKTFANYSTCDRSNLADWLGSLDPRFRQYTYGLVSCGLDRSLLHRVSEQQLLEDCGIHLGVHRARILTAAREMLHSPLPCTGGKPSGDTPDVFISYRRNSGSQLASLLKVHLQLHGFSVFIDVEKLEAGKFEDKLIQSVMGARNFVLVLSPGALDKCMQDHDCKDWVHKEIVTALSCGKNIVPIIDGFEWPEPQVLPEDMQAVLTFNGIKWSHEYQEATIEKIIRFLQGRSSRDSSAGSDTSLEGAAPMGPT

Variants of: B1
Settings: with myd88_human MYD88, Q99836
Chain of myd88_human MYD88, Q99836 (Q99836 whole entry): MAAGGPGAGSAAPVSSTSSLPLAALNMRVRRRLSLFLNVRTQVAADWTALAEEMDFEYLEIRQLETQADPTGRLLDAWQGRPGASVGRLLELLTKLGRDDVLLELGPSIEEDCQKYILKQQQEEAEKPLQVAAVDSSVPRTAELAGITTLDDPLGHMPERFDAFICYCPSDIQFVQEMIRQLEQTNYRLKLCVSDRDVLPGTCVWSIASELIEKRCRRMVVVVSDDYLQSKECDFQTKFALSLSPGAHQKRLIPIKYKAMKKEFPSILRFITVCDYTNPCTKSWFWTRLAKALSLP

**Q.** G601A was tested. Which “effect of a mutation on the interaction” value did it give?
**A.** The value was “disrupting interaction strength”.

Variants of: B1
Settings: with tcam1_human TICAM1, Q8IUC6
Chain of tcam1_human TICAM1, Q8IUC6 (Q8IUC6 whole entry): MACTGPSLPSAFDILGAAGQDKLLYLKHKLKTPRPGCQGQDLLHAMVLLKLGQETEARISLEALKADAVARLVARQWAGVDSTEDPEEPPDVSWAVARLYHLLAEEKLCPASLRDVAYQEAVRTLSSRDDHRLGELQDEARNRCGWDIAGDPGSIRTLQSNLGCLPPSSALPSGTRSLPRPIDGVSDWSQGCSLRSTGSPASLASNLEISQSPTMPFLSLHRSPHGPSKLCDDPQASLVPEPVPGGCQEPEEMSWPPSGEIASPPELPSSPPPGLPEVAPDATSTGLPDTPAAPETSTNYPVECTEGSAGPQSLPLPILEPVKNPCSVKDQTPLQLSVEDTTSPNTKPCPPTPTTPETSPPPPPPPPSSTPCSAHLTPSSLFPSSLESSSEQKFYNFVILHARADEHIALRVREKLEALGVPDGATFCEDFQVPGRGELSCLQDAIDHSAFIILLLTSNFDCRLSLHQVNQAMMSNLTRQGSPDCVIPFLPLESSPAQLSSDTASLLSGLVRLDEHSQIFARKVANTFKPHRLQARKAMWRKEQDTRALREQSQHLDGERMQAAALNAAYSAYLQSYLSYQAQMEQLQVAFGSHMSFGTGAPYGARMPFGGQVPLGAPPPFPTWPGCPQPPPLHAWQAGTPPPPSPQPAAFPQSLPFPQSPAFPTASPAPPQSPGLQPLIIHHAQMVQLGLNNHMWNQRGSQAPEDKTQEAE

**Q.** How did the “effect of a mutation on the interaction” value turn out when G601A was run?
**A.** Its value is “disrupting interaction strength”.

Variants of: B1
Settings: with tirap_human TIRAP

**Q.** How did the “effect of a mutation on the interaction” value turn out when G601A was run?
**A.** Its value is “disrupting interaction strength”.

Variants of: B1
Settings: with tcam2_human TICAM2, Q86XR7
Chain of tcam2_human TICAM2, Q86XR7 (Q86XR7 whole entry): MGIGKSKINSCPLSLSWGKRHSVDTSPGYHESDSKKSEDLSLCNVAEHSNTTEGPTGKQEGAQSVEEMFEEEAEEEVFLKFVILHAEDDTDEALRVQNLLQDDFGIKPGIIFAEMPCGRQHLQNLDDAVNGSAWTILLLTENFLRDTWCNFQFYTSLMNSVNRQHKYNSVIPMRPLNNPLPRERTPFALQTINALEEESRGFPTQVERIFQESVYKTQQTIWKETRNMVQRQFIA

**Q.** With G601A as the variant, how does the “effect of a mutation on the interaction” value read?
**A.** The value was “disrupting interaction strength”.

— IntAct's records for PubMed 26592460
